Results from US20100216975A1.
One block for each molecule: values may come before it.

Experiments:
[1] = molecular target: Human EphA2-Fc fusion protein (human EphA2 fused with the Fc portion of a human IgG1) (human) (UniProt P29317); assay: single point ELISA, 500 ng goat anti-human Fab capture, biotinylated EphA2-Fc; plate of clone VH-233/VL-8G7
[2] = molecular target: Human EphA2-Fc fusion protein (human EphA2 fused with the Fc portion of a human IgG1) (human) (UniProt P29317); assay: single point ELISA, 500 ng goat anti-human Fab capture, biotinylated EphA2-Fc; plate of clone VH-7E8/VL-8G7
[3] = molecular target: Human EphA2-Fc fusion protein (human EphA2 fused with the Fc portion of a human IgG1) (human) (UniProt P29317); assay: single point ELISA, 500 ng goat anti-human Fab capture, biotinylated EphA2-Fc; plate of clone VH-233/VL-12C8
[4] = molecular target: Human EphA2-Fc fusion protein (human EphA2 fused with the Fc portion of a human IgG1) (human) (UniProt P29317); assay: single point ELISA, 500 ng goat anti-human Fab capture, biotinylated EphA2-Fc; plate of clone VH-2G6/VL-12C8
[5] = molecular target: Human EphA2-Fc fusion protein (human EphA2 fused with the Fc portion of a human IgG1) (human) (UniProt P29317); assay: single point ELISA, 500 ng goat anti-human Fab capture, biotinylated EphA2-Fc; plate of clone VH-6H11/VL-8G7
[6] = molecular target: Human EphA2-Fc fusion protein (human EphA2 fused with the Fc portion of a human IgG1) (human) (UniProt P29317); assay: single point ELISA: periplasmic Fab captured on 20 ng goat anti-human Fab, biotinylated human EphA2-Fc, neutravidin-HRP
[7] = molecular target: Human EphA2-Fc fusion protein (human EphA2 fused with the Fc portion of a human IgG1) (human) (UniProt P29317); assay: single point ELISA: periplasmic Fab captured on 100 ng goat anti-human Fab, biotinylated human EphA2-Fc, neutravidin-HRP
[8] = molecular target: Human EphA2-Fc fusion protein (human EphA2 fused with the Fc portion of a human IgG1) (human) (UniProt P29317); assay: single point ELISA: periplasmic Fab captured on 500 ng goat anti-human Fab, biotinylated human EphA2-Fc, neutravidin-HRP
[9] = molecular target: Human EphA2-Fc fusion protein (human EphA2 fused with the Fc portion of a human IgG1) (human) (UniProt P29317); assay: as above; remark: listed apart in the source
[10] = molecular target: Human EphA2-Fc fusion protein (human EphA2 fused with the Fc portion of a human IgG1) (human) (UniProt P29317); assay: as above; remark: listed apart in the source
[11] = molecular target: Human EphA2-Fc fusion protein (human EphA2 fused with the Fc portion of a human IgG1) (human) (UniProt P29317); assay: SPR (BIAcore 3000), IgG over immobilized EphA2-Fc, 1:1 Langmuir fit
[12] = molecular target: Human EphA2-Fc fusion protein (human EphA2 fused with the Fc portion of a human IgG1) (human) (UniProt P29317); assay: SPR (BIAcore 3000), IgG over immobilized EphA2-Fc (~500 RU), 1:1 Langmuir fit

Chain of Human EphA2-Fc fusion protein (human EphA2 fused with the Fc portion of a human IgG1) (human) (P29317 24-534 limits assumed): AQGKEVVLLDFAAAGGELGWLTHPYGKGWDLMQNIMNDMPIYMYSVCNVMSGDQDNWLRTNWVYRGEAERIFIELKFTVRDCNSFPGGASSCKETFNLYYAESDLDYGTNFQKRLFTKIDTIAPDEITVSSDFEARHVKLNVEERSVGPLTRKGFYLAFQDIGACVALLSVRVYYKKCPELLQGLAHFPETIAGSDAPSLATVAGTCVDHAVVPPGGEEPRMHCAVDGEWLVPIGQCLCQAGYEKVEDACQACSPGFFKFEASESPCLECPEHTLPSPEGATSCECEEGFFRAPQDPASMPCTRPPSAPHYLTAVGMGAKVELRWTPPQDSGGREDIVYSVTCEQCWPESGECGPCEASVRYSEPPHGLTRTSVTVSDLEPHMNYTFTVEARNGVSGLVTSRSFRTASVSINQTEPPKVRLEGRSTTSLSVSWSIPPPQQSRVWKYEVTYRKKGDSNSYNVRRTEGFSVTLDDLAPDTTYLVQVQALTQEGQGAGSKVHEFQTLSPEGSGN

OD450 (background signal) [1]: 0.2
OD450 (background signal) [2]: 0.2
OD450 (background signal) [3]: 0.1
OD450 (background signal) [4]: 0.3
OD450 (background signal) [5]: 0.2
OD450 (background signal) [6]: 0.1
OD450 (background signal) [7]: 0.1 to 0.4
OD450 (background signal) [8]: 0.06 to 0.2
OD450 (background signal) [9]: 0.3
OD450 (background signal) [10]: 0.07 to 0.1
Molecule: irrelevant antibody (MEDI-493)

Kd [11]: 0.4 nM
koff [11]: 0.00011 s⁻¹
kon [11]: 280000 M⁻¹ s⁻¹
B1: mouse anti-human EphA2 monoclonal antibody B233 (antibody, from a related filing, V domains shown)
VH: EVKLVESGGGLVQPGGSLSLSCAASGFTFTDYSMNWVRQPPGKALEWLGFIRNKANDYTTEYSASVKGRFTISRDNSQSILYLQMNALRAEDSATYYCVRYPRYHAMDSWGQGTSVTVSS
VL: DIVLTQSPATLSVTPGDSVNLSCRASQSISNNLHWYQQKSHESPRLLIKYVFQSISGIPSRFSGSGSGTDFTLSINSVETEDFGMYFCQQSNSWPLTFGAGTKLELK

Kd [11]: 0.3 nM
koff [11]: 8e-05 s⁻¹
kon [11]: 240000 M⁻¹ s⁻¹
B2: chimaeric form of mAb B233 (VH-233/VL-233) as full length human IgG1 (antibody, from a related filing, V domains shown)
VH: B1 VH
VL: B1 VL

Kd [12]: 5.94 nM
koff [12]: 0.00307 s⁻¹
kon [12]: 517000 M⁻¹ s⁻¹
B3: mouse anti-human EphA2 monoclonal antibody EA2 (antibody, from a related filing, V domains shown)
VH: DVKLVESGGGLVKPGGSLKLSCAASGFTFSSYTMSWVRQTPEKRLEWVATISSGGTYTYYPDSVKGRFTISRDNAKNTLYLQMSSLKSEDTAMYYCTREAIFTYWGQGTLVTVSA
VL: DIKMTQSPSSMYASLGERVTITCKASQDINNYLSWFQQKPGKSPKTLIYRANRLVDGVPSRFSGSGSGQDYSLTISSLEYEDMGIYYCLKYDEFPYTFGGGTKLEIK
